Key:
Experiment in all cases: Epitope mapping ELISA, 5T4 ectodomain Fc fusions
Assay type in all cases: binding
Parameters in all cases: key: +: binding; −: no binding; +/−: partial binding
human 5T4 ectodomain Fc = target: T1, human 5T4 ectodomain Fc (Homo sapiens, UniProt Q13641)
T1 construct: Human; 100; 1-355; made in house; host or cells: COS-1 cells (transient)
T1 sequence (Q13641 32-355): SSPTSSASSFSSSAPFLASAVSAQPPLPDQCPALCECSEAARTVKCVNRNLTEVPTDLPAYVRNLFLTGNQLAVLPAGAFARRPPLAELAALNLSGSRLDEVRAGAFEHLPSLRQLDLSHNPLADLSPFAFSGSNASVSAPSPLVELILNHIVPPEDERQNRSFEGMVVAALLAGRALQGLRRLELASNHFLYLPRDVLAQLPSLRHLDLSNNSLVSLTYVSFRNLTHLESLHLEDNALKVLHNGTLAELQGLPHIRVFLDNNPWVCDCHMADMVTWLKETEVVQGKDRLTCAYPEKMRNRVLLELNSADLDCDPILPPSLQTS
Experimental: (§1) To identify the epitopes to which each of the A1, A2, A3, and H8 antibodies bind, ELISA assays were performed using (1) 5T4 ectodomain Fc constructs with deleted or mutated sequences, and (2) 5T4 chimera constructs transiently expressed in COS-1 cells. The ectodomain includes the amino-terminal region, two leucine-rich repeats, and the intervening hydrophilic region. Fusion proteins containing a 5T4 ectodomain and a Fc constant regions from human IgG1 were prepared using mouse 5T4 (amino acids 1-361), rat 5T4 (amino acids 1-361), cynomologous monkey 5T4 (amino acids 1-355), chimpanzee 5T4 (amino acids 1-355), and black-tailed marmoset (amino acids 1-355). The 5T4 chimera constructs are depicted in FIG. 5. The binding results are summarized in Table 5, which indicates specific binding, partial binding, or lack of binding, by each of the H8, A1, A2, and A3 antibodies.

rat 5T4 ectodomain Fc = target: T2, rat 5T4 ectodomain Fc (Rattus norvegicus, UniProt Q5PQV5)
T2 construct: rat 5T4 (amino acids 1-361); made in house; host or cells: COS-1 cells (transient)
T2 sequence (Q5PQV5 32-361): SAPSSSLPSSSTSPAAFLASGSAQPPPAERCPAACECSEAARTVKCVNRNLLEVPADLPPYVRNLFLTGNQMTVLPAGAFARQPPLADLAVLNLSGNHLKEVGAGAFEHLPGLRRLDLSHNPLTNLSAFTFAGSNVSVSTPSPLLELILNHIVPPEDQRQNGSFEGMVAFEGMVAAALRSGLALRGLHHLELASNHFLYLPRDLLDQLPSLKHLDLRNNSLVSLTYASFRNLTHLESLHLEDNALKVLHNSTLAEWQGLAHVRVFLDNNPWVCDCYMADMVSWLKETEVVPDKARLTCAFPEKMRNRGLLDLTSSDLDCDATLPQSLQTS
Experimental: as §1

[1] = target: T3, cynomologous monkey 5T4 ectodomain Fc (Macaca fascicularis, UniProt Q4R8Y9, G135A/G313E/S41F)
T3 construct: cynomologous monkey 5T4 (amino acids 1-355); made in house; host or cells: COS-1 cells (transient)
T3 sequence (Q4R8Y9 35-355 S41F/G135A/G313E): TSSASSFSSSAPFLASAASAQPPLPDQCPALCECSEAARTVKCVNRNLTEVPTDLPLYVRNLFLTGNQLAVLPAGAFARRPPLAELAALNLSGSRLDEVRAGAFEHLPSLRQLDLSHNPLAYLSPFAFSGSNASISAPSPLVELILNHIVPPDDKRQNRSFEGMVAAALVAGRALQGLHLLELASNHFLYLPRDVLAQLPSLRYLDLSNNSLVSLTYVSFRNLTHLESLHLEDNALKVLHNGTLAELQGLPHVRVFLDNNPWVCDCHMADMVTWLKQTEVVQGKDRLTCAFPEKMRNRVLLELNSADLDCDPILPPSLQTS
Experimental: as §1

[2] = tested on: black-tailed marmoset 5T4 ectodomain Fc
Chain of black-tailed marmoset 5T4 ectodomain Fc (as listed by the source): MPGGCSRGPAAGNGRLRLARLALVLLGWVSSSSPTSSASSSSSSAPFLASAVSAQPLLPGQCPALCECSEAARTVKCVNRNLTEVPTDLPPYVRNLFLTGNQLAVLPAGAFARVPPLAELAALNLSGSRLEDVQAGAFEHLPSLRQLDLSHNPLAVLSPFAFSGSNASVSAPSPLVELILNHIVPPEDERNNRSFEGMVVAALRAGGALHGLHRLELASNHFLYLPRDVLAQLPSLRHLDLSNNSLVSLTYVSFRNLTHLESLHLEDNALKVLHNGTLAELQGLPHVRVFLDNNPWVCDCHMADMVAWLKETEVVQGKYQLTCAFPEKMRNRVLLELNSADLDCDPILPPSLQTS
Experimental: as §1

mouse 5T4 ectodomain Fc = target: T4, mouse 5T4 ectodomain Fc (Mus musculus, UniProt Q9Z0L0)
T4 construct: mouse 5T4 (amino acids 1-361); made in house; host or cells: COS-1 cells (transient)
T4 sequence (Q9Z0L0 32-361): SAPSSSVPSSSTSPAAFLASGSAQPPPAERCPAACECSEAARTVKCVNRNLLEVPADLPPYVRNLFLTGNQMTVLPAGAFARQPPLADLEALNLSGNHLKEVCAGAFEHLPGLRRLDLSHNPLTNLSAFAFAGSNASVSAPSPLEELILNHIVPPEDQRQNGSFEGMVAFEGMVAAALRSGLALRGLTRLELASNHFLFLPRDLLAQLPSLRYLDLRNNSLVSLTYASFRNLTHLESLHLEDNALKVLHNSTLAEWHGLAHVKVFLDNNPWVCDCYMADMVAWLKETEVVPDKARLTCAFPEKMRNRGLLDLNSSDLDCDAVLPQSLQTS
Experimental: as §1

[3] = tested on: chimpanzee 5T4 ectodomain Fc
Experimental: as §1

Measured: binding to 5T4 antigen construct

B1: A2: murine anti-5T4 monoclonal antibody (IgG2b heavy chain); VH residues 19-135 of SEQ ID NO:6, VL residues 23-130 of SEQ ID NO:8 (antibody, listed as Mus musculus, V domains shown)
VH: MEWRIFLFILSGTAGVHSQVQLQQSRPELVKPGASVKMSCKASGYTFTDYVISWVKQRTGQGLEWIGEIYPGSNSIYYNEKFKGRATLTADKSSSTAYMQLSSLTSEDSAVYFCAMGGNYGFDYWGQGTTLTVSS
VL: MDFQVQIFSFLLISASVIMSRGQIVLTQSPAIMSASLGERVTLTCTASSSVNSNYLHWYQQKPGSSPKLWIYSTSNLASGVPARFSGSGSGTSYSLTISSMEAEDAATYYCHQYHRSPLTFGAGTKLELK
modifications: (1)..(18) leader sequence; (19)..(135) heavy chain variable region; (44)..(53) CDR1; (68)..(84) CDR2; (117)..(124) CDR3; (1)..(22) leader sequence; (23)..(130) light chain variable region; (46)..(56) CDR1; (73)..(79) CDR2; (112)..(120) CDR3
−: rat 5T4 ectodomain Fc | mouse 5T4 ectodomain Fc
+: all other assays above

— patent publication US20070231333A1, “ANTI-5T4 ANTIBODIES AND USES THEREOF” (Wyeth, priority 2006, published 2007)
